In the experiment the target is CMG assembled in vitro on roadblocked linear DNA from loaded MCM double hexamers and purified firing factors (yeast (strains based on W303)) (UniProt Q08032). Put plainly: negative-stain EM with 2D classification; origin activation reconstituted with purified yeast proteins on bead-tethered linear DNA capped by covalent protein roadblocks; eluted by DNA digestion at a single site; particles counted in 2D class averages.

In the case of “Pol epsilon used in the reconstituted origin activation (MCM train) reactions, P21951 1-2222; P24482 1-689; P27344 1-201; Q04603 1-196”, the percent of isolated (not train-incorporated) CMG particles bound by Pol epsilon stood at 2%.

The values above are taken from article PMC6265327.
